B1: wild type NSP3 (non-structural protein 3) of simian species A rotavirus strain RRV [simian rotavirus A strain RRV] / itself (parent complex)
chain: MESTQQMASSIINSSFEAAVVAATSTLELMGIQYDYNEVYTRVKSKFDLVMDDSGVKNNLIGKAITIDQALNGKFSSAIRNRNWMTDSRTVAKLDEDVNKLRIMLSSKGIDQKMRVLNACFSVKRIPGKSSSIVKCTRLMKDKLERGEVEVDDSFVEEKMEVDTIDWKSRYEQLEKRFESLKHRVNEKYNHWVLKARKVNENMNSLQNVISQQQAHINELQMYNNKLERDLQSKIGSVVSSIEWYLRSMELSDDVKSDIEQQLNSIDQLNPVNAIDDFESILRNLISDYDRLFIMFKGLLQQCNYTYTYE

Variants of: B1
Test: non-dissociating Western blot (WB-ND) densitometry; parent: 1; read off a plot
With MESTQQMASSIINSSFEAAVVAATSTLELMGIQYDYNEVYTRVKSKFDLVMDDSGVKNNLIGKAITIDQALNGKFSSAIRNRNWMTDSRTVAKLDEDVNKLRIMLSSKGIDQKMRVLNACFSVKRIPGKSSSIVKCTRLMKDKLERGEVEVDDSFVEEKMEVDTIDWESRYEQLEKRFESLKHRVNEKYNHWVLKARKVNENMNSLQNVISQQQAHINELQMYNNKLERDLQSKIGSVVSSIEWYLRSMELSDDVKSDIEQQLNSIDQLNPVNAIDDFESILRNLISDYDRLFIMFKGLLQQCNYTYTYE [chain 1 K168E] the ratio to parent was ~0.32. Variant MESTQQMASSIINSSFEAAVVAATSTLELMGIQYDYNEVYTRVKSKFDLVMDDSGVKNNLIGKAITIDQALNGKFSSAIRNRNWMTDSRTVAKLDEDVNKLRIMLSSKGIDQKMRVLNACFSVKRIPGKSSSIVKCTRLMKDKLERGEVEVDDSFVEEKMEVDTIDWKSRYEQLEKRFESLKHEVNEEYNHWVLKARKVNENMNSLQNVISQQQAHINELQMYNNKLERDLQSKIGSVVSSIEWYLRSMELSDDVKSDIEQQLNSIDQLNPVNAIDDFESILRNLISDYDRLFIMFKGLLQQCNYTYTYE [chain 1 R184E, chain 1 K188E] has a ratio to parent of ~0.13. Work on MESTQQMASSIINSSFEAAVVAATSTLELMGIQYDYNEVYTRVKSKFDLVMDDSGVKNNLIGKAITIDQALNGKFSSAIRNRNWMTDSRTVAKLDEDVNKLRIMLSSKGIDQKMRVLNACFSVKRIPGKSSSIVKCTRLMKDKLERGEVEVDDSFVEEKMEVDTIDWKSEYEQLEKRFESLKHRVNEKYNHWVLKARKVNENMNSLQNVISQQQAHINELQMYNNKLERDLQSKIGSVVSSIEWYLRSMELSDDVKSDIEQQLNSIDQLNPVNAIDDFESILRNLISDYDRLFIMFKGLLQQCNYTYTYE [chain 1 R170E] yielded a ratio to parent of ~0.17. For MESTQQMASSIINSSFEAAVVAATSTLELMGIQYDYNEVYTRVKSKFDLVMDDSGVKNNLIGKAITIDQALNGKFSSAIRNRNWMTDSRTVAKLDEDVNKLRIMLSSKGIDQKMRVLNACFSVKRIPGKSSSIVKCTRLMKDKLERGEVEVDDSFVEEKMEVDTIDWKSRYEQLEKRFESLKHRVNEKANHWVLKARKVNENMNSLQNVISQQQAHINELQMYNNKLERDLQSKIGSVVSSIEWYLRSMELSDDVKSDIEQQLNSIDQLNPVNAIDDFESILRNLISDYDRLFIMFKGLLQQCNYTYTYE [chain 1 Y189A], the ratio to parent was ~1.8.
